Experiments:
Troponin C = Troponin C (UniProt P63316); settings: cited from earlier work
[1] = target: human cardiac T53C-IAANS TnC (human) (UniProt P63316); experiment: stopped-flow fluorescence; apparent; 1 uM TnC T53C-IAANS with saturating Ca2+ and increasing concentrations of TnI128-180, Ca2+ removed with 10 mM EGTA; rate of Ca2+ dissociation followed by IAANS fluorescence; 15°C; 10 mM MOPS, 150 mM KCl, pH 7.0

Substance	Kd (Troponin C)	Kd [1]
Troponin I (from UniProt P19429)	1200 nM	–
TnI_(128−180) peptide (from UniProt P19429 128-180)	–	3000 nM

Reference: article PMC5175494
